Patent publication US20210380703A1 (RIGEL PHARMACEUTICALS, published 2021)
Blank lines part the entries; values can stand above or below the binder they belong to.

Assays:
Human ACVR2A = molecular target: T1, Human ACVR2A (human, UniProt P27037 20-135, limits assumed); assay: ELISA
T1 construct: also called activin receptor, type II A
Procedure, shortened: (§1)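 ELISA measured binding of ACVR2A-specific monoclonal antibodies to human and mouse ACVR2A. Biotinylated goat anti-human kappa light chain served as positive control and human Fc as negative control.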

Mouse ACVR2A = Mouse ACVR2A (mouse, UniProt P27038 20-135, limits assumed); assay: ELISA
Procedure, shortened: as §1

Goat anti-Human Kappa = molecular target: T2, Goat anti-Human Kappa; assay: ELISA, positive control
T2 construct: Positive control of the ELISA; also called biotinylated goat anti-human kappa light chain
Procedure, shortened: as §1
Note: test concentration or dose not given here.

Sequence of Mouse ACVR2A (P27038 20-135 limits assumed): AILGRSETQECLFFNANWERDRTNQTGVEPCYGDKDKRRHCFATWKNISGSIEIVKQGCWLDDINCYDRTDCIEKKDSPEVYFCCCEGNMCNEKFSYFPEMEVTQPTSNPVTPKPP
T1 sequence (P27037 20-135 limits assumed): as the sequence (P27038 20-135 limits assumed) above, with R20K, I73V counted along it

optical density (Human ACVR2A): 2.89 OD
optical density (Mouse ACVR2A): 2.94 OD
optical density (Goat anti-Human Kappa): 2.17 OD
B3: 371_D09 (antibody, V domains shown)
VH: EVQLLESGGGLVQPGGSLRLSCAASGFTFSSYSMNWVRQAPGKGLEWVSNINYNSGYTGYADSVKGRFTISRDNSKNTLYLQMNSLRAEDTAVYYCARSANWHDTALDYWGQGTLVTVSS
VL: DIQMTQSPSSLSASVGDRVTITCRASQSILTYLNWYQQKPGKAPKLVIYAATSRASGVPSRFSGSGSGTDFTLTISSLQPEDFATYYCQQSYNNPLTFGGGTKVEIK

optical density (Human ACVR2A): 2.41 OD
optical density (Mouse ACVR2A): 2.62 OD
optical density (Goat anti-Human Kappa): 3.68 OD
B4: 371_F01 (antibody, V domains shown)
VH: EVQLLESGGGLVQPGGSLRLSCAASGFTFSSYSMNWVRQAPGKGLEWVAGINYNGGYTGYADSVKGRFTISRDNSKNTLYLQMNSLRAEDTAVYYCARSANWHDTALDYWGQGTLVTVSS
VL: DIQMTQSPSSLSASVGDRVTITCRASQSILTYVNWYQQKPGKAPKLVIYAATSLASGVPSRFSGSGSGTDFTLTISSLQPEDFATYYCQQSYNNPLTFGGGTKVEIK

optical density (Human ACVR2A): 2.95 OD
optical density (Mouse ACVR2A): 3.1 OD
optical density (Goat anti-Human Kappa): 3.66 OD
B7: 371_F04 (antibody, V domains shown)
VH: EVQLLESGGGLVQPGGSLRLSCAASGFTFDSYSMNWVRQAPGKGLEWVAGINYNSGYKGYADSVKGRFTISRDNSKNTLYLQMNSLRAEDTAVYYCARSANWHDTALDYWGQGTLVTVSS
VL: DIQMTQSPSSLSASVGDRVTITCRASQSILSYLNWYQQKPGKAPKLLIYAATSRHSGVPSRFSGSGSGTDFTLTISSLQPEDFATYYCQQSYNNPLTFGGGTKVEIK

Continued, binder first:

B1: 371_B06 (antibody, V domains shown)
VH: EVQLLESGGGLVQPGGSLRLSCAASGFTFDSYSMNWVRQAPGKGLEWVAGINYNGGYKSYADSVKGRFTISRDNSKNTLYLQMNSLRAEDTAVYYCARSANWHDTALDYWGQGTLVTVSS
VL: DIQMTQSPSSLSASVGDRVTITCRASQSILTYVNWYQQKPGKAPKLVIYAATSRHSGVPSRFSGSGSGTDFTLTISSLQPEDFATYYCQQSYNLPLTFGGGTKVEIK
optical density (Human ACVR2A): 2.69 OD
optical density (Mouse ACVR2A): 2.71 OD
optical density (Goat anti-Human Kappa): 3.3 OD

B2: 371_B07 (antibody, V domains shown)
VH: EVQLLESGGGLVQPGGSLRLSCAASGFTFDSYSMNWVRQAPGKGLEWVAGINYNGGYTSYADSVKGRFTISRDNSKNTLYLQMNSLRAEDTAVYYCARSANWHDTALDYWGQGTLVTVSS
VL: DIQMTQSPSSLSASVGDRVTITCRASQSILTYVNWYQQKPGKAPKLLIYAATSRASGVPSRFSGSGSGTDFTLTISSLQPEDFATYYCQQSYELPLTFGGGTKVEIK
optical density (Human ACVR2A): 2.78 OD
optical density (Mouse ACVR2A): 3.04 OD
optical density (Goat anti-Human Kappa): 3.33 OD

B5: 371_C03 (antibody, V domains shown)
VH: EVQLLESGGGLVQPGGSLRLSCAASGFTFSSYSMNWVRQAPGKGLEWVSNINYNGGYKGYADSVKGRFTISRDNSKNTLYLQMNSLRAEDTAVYYCARSANWHDTALDYWGQGTLVTVSS
VL: DIQMTQSPSSLSASVGDRVTITCRASQSILSYLNWYQQKPGKAPKLVIYATTSRASGVPSRFSGSGSGTDFTLTISSLQPEDFATYYCQQSYSTPLTFGGGTKVEIK
optical density (Human ACVR2A): 3.01 OD
optical density (Mouse ACVR2A): 3.24 OD
optical density (Goat anti-Human Kappa): 3.6 OD

B6: 371_D06 (antibody, V domains shown)
VH: EVQLLESGGGLVQPGGSLRLSCAASGFTFDDYSMNWVRQAPGKGLEWVAGINYNGGYTSYADSVKGRFTISRDNSKNTLYLQMNSLRAEDTAVYYCARSANWHDTALDYWGQGTLVTVSS
VL: DIQMTQSPSSLSASVGDRVTITCRASQSIISYVNWYQQKPGKAPKLLIYAATSRASGVPSRFSGSGSGTDFTLTISSLQPEDFATYYCQQSYSTPLTFGGGTKVEIK
optical density (Human ACVR2A): 1.48 OD
optical density (Mouse ACVR2A): 1.55 OD
optical density (Goat anti-Human Kappa): 3.32 OD
